Assays:
[1] = substrate: CCCC[C@@H](C(=O)Nc1ccc2c(C)c(CC(=O)O)c(=O)oc2c1)n1cc([C@@](C)(NCc2ccccc2)C(C)C)nn1; assay: (§1) Binding affinity to Trypanosoma cruzi Cruzain assessed as Kcat/Km
[2] = substrate: CCCC[C@@H](C(=O)Nc1ccc2c(C)c(CC(=O)O)c(=O)oc2c1)n1cc([C@@](C)(NCc2ccc3ncccc3c2)C(C)C)nn1; assay: as §1
[3] = substrate: CCCC[C@@H](C(=O)Nc1ccc2c(C)c(CC(=O)O)c(=O)oc2c1)n1cc([C@@](C)(NCc2ccc3ncsc3c2)C(C)C)nn1; assay: as §1
[4] = substrate: CCCC[C@@H](C(=O)Nc1ccc2c(C)c(CC(=O)O)c(=O)oc2c1)n1cc([C@@](C)(NCc2ccc(F)cc2)C(C)C)nn1; assay: as §1
[5] = substrate: CCCC[C@@H](C(=O)Nc1ccc2c(C)c(CC(=O)O)c(=O)oc2c1)n1cc([C@@](C)(NCc2ccc(OC)cc2)C(C)C)nn1; assay: as §1

B1: Cruzipain (Trypanosoma cruzi), P25779 (protein)
chain: MSGWARALLLAAVLVVMACLVPAATASLHAEETLTSQFAEFKQKHGRVYESAAEEAFRLSVFRENLFLARLHAAANPHATFGVTPFSDLTREEFRSRYHNGAAHFAAAQERARVPVKVEVVGAPAAVDWRARGAVTAVKDQGQCGSCWAFSAIGNVECQWFLAGHPLTNLSEQMLVSCDKTDSGCSGGLMNNAFEWIVQENNGAVYTEDSYPYASGEGISPPCTTSGHTVGATITGHVELPQDEAQIAAWLAVNGPVAVAVDASSWMTYTGGVMTSCVSEQLDHGVLLVGYNDSAAVPYWIIKNSWTTQWGEEGYIRIAKGSNQCLVKEEASSAVVGGPGPTPEPTTTTTTSAPGPSPSYFVQMSCTDAACIVGCENVTLPTGQCLLTTSGVSAIVTCGAETLTEEVFLTSTHCSGPSVRSSVPLNKCNRLLRGSVEFFCGSSSSGRLADVDRQRRHQPYHSRHRRL
Protein B1 has a kcat/Km [1] of 3.5, a kcat/Km [2] of 19 and a kcat/Km [3] of 19. The kcat/Km [4] was 4 and the kcat/Km [5] was 6.5.

— ChEMBL document CHEMBL5244221, “Synthesis and structure-activity relationship studies of cruzain and rhodesain inhibitors” (Eur J Med Chem, 2018)
